Results taken from patent US20130225506A1 (POLYPHOR, published 2013).
Square brackets hold non-standard residues; d marks the D form. dPro(cis-4-NH2) = N[C@H]1CN[C@@H](C(=O)O)C1; Tic = O=C(O)[C@@H]1Cc2ccccc2CN1; aThr = C[C@H](O)[C@H](N)C(=O)O; hSer = N[C@@H](CCO)C(=O)O; Orn = NCCC[C@H](N)C(=O)O; A56 = not defined here

Biological target: chemokine receptor CXCR7 (UniProt P25106 1-362, limits assumed)
Assay: cell-based or functional assay

Chain of chemokine receptor CXCR7 (P25106 whole entry): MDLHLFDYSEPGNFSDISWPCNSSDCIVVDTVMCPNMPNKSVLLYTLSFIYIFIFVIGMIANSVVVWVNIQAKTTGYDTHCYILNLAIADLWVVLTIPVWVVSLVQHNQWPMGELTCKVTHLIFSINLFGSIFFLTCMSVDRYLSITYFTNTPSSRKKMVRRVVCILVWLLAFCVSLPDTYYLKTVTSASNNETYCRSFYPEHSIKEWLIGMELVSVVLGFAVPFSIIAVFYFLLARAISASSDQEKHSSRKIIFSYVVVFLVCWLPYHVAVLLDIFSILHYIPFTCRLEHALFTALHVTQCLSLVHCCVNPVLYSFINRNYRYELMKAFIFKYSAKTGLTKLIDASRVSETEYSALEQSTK

| Binder | β-Arrestin EC50 |
| --- | --- |
| cyclo(W[dF]W[Orn](A56)[dPro(cis-4-NH2)][Tic]) (reading uncertain; also: printed as cyclo(-Trp-^DPhe-Trp-Orn(A56)-^DPro((4R)NH2)-Tic-)) [cyclo(-Trp-^DPhe-Trp-Orn(A56)-^DPro((4R)NH2)-Tic-)] | 33.4 nM |
| cyclo(I[dR]RW[dP][hSer]) (SMILES CC[C@H](C)[C@@H]1NC(=O)[C@H](CCO)NC(=O)[C@H]2CCCN2C(=O)[C@H](Cc2c[nH]c3ccccc23)NC(=O)[C@H](CCCNC(=N)N)NC(=O)[C@@H](CCCNC(=N)N)NC1=O) [cyclo(-Ile-^DArg-Arg-Trp-^DPro-hSer-)] | 347 nM |
| cyclo(I[dR]RW[dP][aThr]) (SMILES CC[C@H](C)[C@@H]1NC(=O)[C@H]([C@H](C)O)NC(=O)[C@H]2CCCN2C(=O)[C@H](Cc2c[nH]c3ccccc23)NC(=O)[C@H](CCCNC(=N)N)NC(=O)[C@@H](CCCNC(=N)N)NC1=O) [cyclo(-Ile-^DArg-Arg-Trp-^DPro-alloThr-)] | 292 nM |
